± gives the standard deviation of the averaged measurements.
Tests used:
MCF7 = test: percentage of EdU-negative (G0-arrested) nuclei per well, 72 h; higher = more G0 arrest; conditions: reference: sequence is the full UniProt precursor, the tested protein was the secreted form or ectodomain
hTERT-HMEC = test: as above; conditions: reference: sequence is the full UniProt precursor, the tested protein was the secreted form or ectodomain
[1] = protein concentration 0.0225 µM
[2] = protein concentration 0.01475 µM
[3] = protein concentration 0.1475 µM
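Also: secreted proteins added to cultured cells, EdU pulse at the end, nuclei found by Hoechst imaging, EdU status from nuclear versus surrounding ring intensity ratio, PBS as neutral control.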

Row | Sequence | percentage of EdU-negative (MCF7; [1]) [%] | percentage of EdU-negative (MCF7; protein concentration 0.225 µM) [%] | percentage of EdU-negative (hTERT-HMEC; [1]) [%] | percentage of EdU-negative (hTERT-HMEC; protein concentration 0.225 µM) [%] | percentage of EdU-negative (MCF7; [2]) [%] | percentage of EdU-negative (MCF7; [3]) [%] | percentage of EdU-negative (hTERT-HMEC; [2]) [%] | percentage of EdU-negative (hTERT-HMEC; [3]) [%]
1 | MRKFAYCKVVLATSLIWVLLDMFLLLYFSECNKCDEKKERGLPAGDVLEPVQKPHEGPGEMGKPVVIPKEDQEKMKEMFKINQFNLMASEMIALNRSLPDVRLEGCKTKVYPDNLPTTSVVIVFHNEAWSTLLRTVHSVINRSPRHMIEEIVLVDDASERDFLKRPLESYVKKLKVPVHVIRMEQRSGLIRARLKGAAVSKGQVITFLDAHCECTVGWLEPLLARIKHDRRTVVCPIIDVISDDTFEYMAGSDMTYGGFNWKLNFRWYPVPQREMDRRKGDRTLPVRTPTMAGGLFSIDRDYFQEIGTYDAGMDIWGGENLEISFRIWQCGGTLEIVTCSHVGHVFRKATPYTFPGGTGQIINKNNRRLAEVWMDEFKNFFYIISPGVTKVDYGDISSRVGLRHKLQCKPFSWYLENIYPDSQIPRHYFSLGEIRNVETNQCLDNMARKENEKVGIFNCHGMGGNQVFSYTANKEIRTDDLCLDVSKLNGPVTMLKCHHLKGNQLWEYDPVKLTLQHVNSNQCLDKATEEDSQVPSIRDCNGSRSQQWLLRNVTLPEIF | 25.1 ± 1 | 23.6 ± 2.5 | 4.8 ± 0.5 | 5.577 ± 0.015 | – | – | – | –
2 | MRKMNTLLLVSLSFLYLKEVMGLKCNTCIYTEGWKCMAGRGTCIAKENELCSTTAYFRGDKHMYSTHMCKYKCREEESSKRGLLRVTLCCDRNFCNVF [P0C8F1] | 24.7 ± 1.3 | 27.4 ± 0.56 | 4.34 ± 0.4 | 7.87 ± 1.3 | – | – | – | –
3 | MRLAGPLRIVVLVVSVGVTWIVVSILLGGPGSGFPRIQQLFTSPESSVTAAPRARKYKCGLPQPCPEEHLAFRVVSGAANVIGPKICLEDKMLMSSVKDNVGRGLNIALVNGVSGELIEARAFDMWAGDVNDLLKFIRPLHEGTLVFVASYDDPATKMNEETRKLFSELGSRNAKELAFRDSWVFVGAKGVQNKSPFEQHVKNSKHSNKYEGWPEALEMEGCIPRRSTAS | 24.6 ± 1.1 | 25.8 ± 2.3 | 5.06 ± 0.4 | 6.75 ± 0.34 | – | – | – | –
4 | MRLAVLFSGALLGLLAAQGTGNDCPHKKSATLLPSFTVTPTVTESTGTTSHRTTKSHKTTTHRTTTTGTTSHGPTTATHNPTTTSHGNVTVHPTSNSTATSQGPSTATHSPATTSHGNATVHPTSNSTATSPGFTSSAHPEPPPPSPSPSPTSKETIGDYTWTNGSQPCVHLQAQIQIRVMYTTQGGGEAWGISVLNPNKTKVQGSCEGAHPHLLLSFPYGHLSFGFMQDLQQKVVYLSYMAVEYNVSFPHAAQWTFSAQNASLRDLQAPLGQSFSCSNSSIILSPAVHLDLLSLRLQAAQLPHTGVFGQSFSCPSDRSILLPLIIGLILLGLLALVLIAFCIIRRRPSAYQAL | 25.5 ± 1.1 | 26.5 ± 0.42 | 4.81 ± 0.13 | 7.36 ± 0.68 | – | – | – | –
5 | MRLGSPGLLFLLFSSLRADTQEKEVRAMVGSDVELSCACPEGSRFDLNDVYVYWQTSESKTVVTYHIPQNSSLENVDSRYRNRALMSPAGMLRGDFSLRLFNVTPQDEQKFHCLVLSQSLGFQEVLSVEVTLHVAANFSVPVVSAPHSPSQDELTFTCTSINGYPRPNVYWINKTDNSLLDQALQNDTVFLNMRGLYDVVSVLRIARTPSVNIGCCIENVLLQQNLTVGSQTGNDIGERDKITENPVSTGEKNAATWSILAVLCLLVVVAVAIGWVCRDRCLQHSYAGAWAVSPETELTGHV | 27.1 ± 2.8 | 25.8 ± 2.6 | 5.11 ± 0.35 | 6.86 ± 0.54 | – | – | – | –
6 | MRLHLLLLLALCGAGTTAAELSYSLRGNWSICNGNGSLELPGAVPGCVHSALFQQGLIQDSYYRFNDLNYRWVSLDNWTYSKEFKIPFEISKWQKVNLILEGVDTVSKILFNEVTIGETDNMFNRYSFDITNVVRDVNSIELRFQSAVLYAAQQSKAHTRYQVPPDCPPLVQKGECHVNFVRKEQCSFSWDWGPSFPTQGIWKDVRIEAYNICHLNYFTFSPIYDKSAQEWNLEIESTFDVVSSKPVGGQVIVAIPKLQTQQTYSIELQPGKRIVELFVNISKNITVETWWPHGHGNQTGYNMTVLFELDGGLNIEKSAKVYFRTVELIEEPIKGSPGLSFYFKINGFPIFLKGSNWIPADSFQDRVTSELLRLLLQSVVDANMNTLRVWGGGIYEQDEFYELCDELGIMVWQDFMFACALYPTDQGFLDSVTAEVAYQIKRLKSHPSIIIWSGNNENEEALMMNWYHISFTDRPIYIKDYVTLYVKNIRELVLAGDKSRPFITSSPTNGAETVAEAWVSQNPNSNYFGDVHFYDYISDCWNWKVFPKARFASEYGYQSWPSFSTLEKVSSTEDWSFNSKFSLHRQHHEGGNKQMLYQAGLHFKLPQSTDPLRTFKDTIYLTQVMQAQCVKTETEFYRRSRSEIVDQQGHTMGALYWQLNDIWQAPSWASLEYGGKWKMLHYFAQNFFAPLLPVGFENENTFYIYGVSDLHSDYSMTLSVRVHTWSSLEPVCSRVTERFVMKGGEAVCLYEEPVSELLRRCGNCTRESCVVSFYLSADHELLSPTNYHFLSSPKEAVGLCKAQITAIISQQGDIFVFDLETSAVAPFVWLDVGSIPGRFSDNGFLMTEKTRTILFYPWEPTSKNELEQSFHVTSLTDIY | – | – | – | – | 25.3 ± 0.54 | 28.1 ± 0.47 | 5.29 ± 0.2 | 5.9 ± 0.22

From the supplement of paper PMC11316812
